Source: patent publication US20170190753A1 (LABORATOIRE FRANCAIS DU FRACTIONNEMENT ET DES …, published 2017)

B1: pCEP4-1NT7-10CT20 (other)
chain: EDCNELPPRRNTEILTGSWSDQTYPEGTQAIYKCRPGYRSLGNVIMVCRKGEWVALNPLRKCQKRPCGHPGDTPFGTFTLTGGNVFEYGVKAVYTCNEGYQLLGEINYRECDTDGWTNDIPICEVVKCLPVTAPENGKIVSSAMEPDREYHFGQAVRFVCNSGYKIEGDEEMHCSDDGFWSKEKPKCVEISCKSPDVINGSPISQKIIYKENERFQYKCNMGYEYSERGDAVCTESGWRPLPSCEEKSCDNPYIPNGDYSPLRIKHRTGDEITYQCRNGFYPATRGNTAKCTSTGWIPAPRCTLKPCDYPDIKHGGLYHENMRRPYFPVAVGKYYSYYCDEHFETPSGSYWDHIHCTQDGWSPAVPCLRKCYFPYLENGYNQNYGRKFVQGKSIDVACHPGYALPKAQTTVTCMENGWSPTPRCIRVKTGASGCELPKIDVHLVPDRKKDQYKVGEVLKFSCKPGFTIVGPNSVQCYHFGLSPDLPICKEQVQSCGPPPELLNGNVKEKTKEEYGHSEVVEYYCNPRFLMKGPNKIQCVDGEWTTLPVCIVEESTCGDIPELEHGWAQLSSPPYYYGDSVEFNCSESFTMIGHRSITCIHGVWTQLPQCVAIDKLKKCKSSNLIILEEHLKNKKEFDHNSNIRYRCRGKEGWIHTVCINGRWDPEVNCSMAQIQLCPPPPQIPNSHNMTTTLNYRDGEKVSVLCQENYLIQEGEEITCKDGRWQSIPLCVEKIPCSQPPQIEHGTINSSRSSQESYAHGTKLSYTCEGGFRISEENETTCYMGKWSSPPQCEGLPCKSPPEISHGVVAHMSDSYQYGEEVTYKCFEGFGIDGPAIAKCLGEKWSHPPSCIKTDCLSLPSFENAIPMGEKKDVYKAGEQVTYTCATYYKMDGASNVTCINSRWTGRPTCRDTSCVNPPTVQNAYIVSRQMSKYPSGERVRYQCRSPYEMFGDEEVMCLNGNWTEPPQCKDSTGKCGPPPPIDNGDITSFPLSVYAPASSVEYQCQNLYQLEGNKRITCRNGQWSEPPKCLHPCVISREIMENYNIALRWTAKQKLYSRTGESVEFVCKRGYRLSSRSHTLRTTCWDGKLEYPTCAKRGGSGHHHHHH
B2: pCEP4-1NT9-14CT20 (other)
chain: EDCNELPPRRNTEILTGSWSDQTYPEGTQAIYKCRPGYRSLGNVIMVCRKGEWVALNPLRKCQKRPCGHPGDTPFGTFTLTGGNVFEYGVKAVYTCNEGYQLLGEINYRECDTDGWTNDIPICEVVKCLPVTAPENGKIVSSAMEPDREYHFGQAVRFVCNSGYKIEGDEEMHCSDDGFWSKEKPKCVEISCKSPDVINGSPISQKIIYKENERFQYKCNMGYEYSERGDAVCTESGWRPLPSCEEKSCDNPYIPNGDYSPLRIKHRTGDEITYQCRNGFYPATRGNTAKCTSTGWIPAPRCTLKPCDYPDIKHGGLYHENMRRPYFPVAVGKYYSYYCDEHFETPSGSYWDHIHCTQDGWSPAVPCLRKCYFPYLENGYNQNYGRKFVQGKSIDVACHPGYALPKAQTTVTCMENGWSPTPRCIRVKTCSKSSIDIENGFISESQYTYALKEKAKYQCKLGYVTADGETSGSITCGKDGWSAQPTCIKSCDIPVFMNARTKNDFTWFKLNDTLDYECHDGYESNTGSTTGSIVCGYNGWSDLPICYEREGASGCPPPPQIPNSHNMTTTLNYRDGEKVSVLCQENYLIQEGEEITCKDGRWQSIPLCVEKIPCSQPPQIEHGTINSSRSSQESYAHGTKLSYTCEGGFRISEENETTCYMGKWSSPPQCEGLPCKSPPEISHGVVAHMSDSYQYGEEVTYKCFEGFGIDGPAIAKCLGEKWSHPPSCIKTDCLSLPSFENAIPMGEKKDVYKAGEQVTYTCATYYKMDGASNVTCINSRWTGRPTCRDTSCVNPPTVQNAYIVSRQMSKYPSGERVRYQCRSPYEMFGDEEVMCLNGNWTEPPQCKDSTGKCGPPPPIDNGDITSFPLSVYAPASSVEYQCQNLYQLEGNKRITCRNGQWSEPPKCLHPCVISREIMENYNIALRWTAKQKLYSRTGESVEFVCKRGYRLSSRSHTLRTTCWDGKLEYPTCAKRGGSGHHHHHH
B3: pCEP4-1NT10-11CT20 (other)
chain: EDCNELPPRRNTEILTGSWSDQTYPEGTQAIYKCRPGYRSLGNVIMVCRKGEWVALNPLRKCQKRPCGHPGDTPFGTFTLTGGNVFEYGVKAVYTCNEGYQLLGEINYRECDTDGWTNDIPICEVVKCLPVTAPENGKIVSSAMEPDREYHFGQAVRFVCNSGYKIEGDEEMHCSDDGFWSKEKPKCVEISCKSPDVINGSPISQKIIYKENERFQYKCNMGYEYSERGDAVCTESGWRPLPSCEEKSCDNPYIPNGDYSPLRIKHRTGDEITYQCRNGFYPATRGNTAKCTSTGWIPAPRCTLKPCDYPDIKHGGLYHENMRRPYFPVAVGKYYSYYCDEHFETPSGSYWDHIHCTQDGWSPAVPCLRKCYFPYLENGYNQNHGRKFVQGKSIDVACHPGYALPKAQTTVTCMENGWSPTPRCIRVKTCSKSSIDIENGFISESQYTYALKEKAKYQCKLGYVTADGETSGSITCGKDGWSAQPTCIKSCDIPVFMNARTKNDFTWFKLNDTLDYECHDGYESNTGSTTGSIVCGYNGWSDLPICYERECELPKIDVHLVPDRKKDQYKVGEVLKFSCKPGFTIVGPNSVQCYHFGLSPDLPICKEQVQSGASGCGPPPELLNGNVKEKTKEEYGHSEVVEYYCNPRFLMKGPNKIQCVDGEWTTLPVCIVEESTCGDIPELEHGWAQLSSPPYYYGDSVEFNCSESFTMIGHRSITCIHGVWTQLPQCVAIDKLKKCKSSNLIILEEHLKNKKEFDHNSNIRYRCRGKEGWIHTVCINGRWDPEVNCSMAQIQLCPPPPQIPNSHNMTTTLNYRDGEKVSVLCQENYLIQEGEEITCKDGRWQSIPLCVEKIPCSQPPQIEHGTINSSRSSQESYAHGTKLSYTCEGGFRISEENETTCYMGKWSSPPQCEGLPCKSPPEISHGVVAHMSDSYQYGEEVTYKCFEGFGIDGPAIAKCLGEKWSHPPSCIKTDCLSLPSFENAIPMGEKKDVYKAGEQVTYTCATYYKMDGASNVTCINSRWTGRPTCRDTSCVNPPTVQNAYIVSRQMSKYPSGERVRYQCRSPYEMFGDEEVMCLNGNWTEPPQCKDSTGKCGPPPPIDNGDITSFPLSVYAPASSVEYQCQNLYQLEGNKRITCRNGQWSEPPKCLHPCVISREIMENYNIALRWTAKQKLYSRTGESVEFVCKRGYRLSSRSHTLRTTCWDGKLEYPTCAKRGGSGHHHHHH
B4: pCEP4-1NT9-10CT20 (other)
chain: EDCNELPPRRNTEILTGSWSDQTYPEGTQAIYKCRPGYRSLGNVIMVCRKGEWVALNPLRKCQKRPCGHPGDTPFGTFTLTGGNVFEYGVKAVYTCNEGYQLLGEINYRECDTDGWTNDIPICEVVKCLPVTAPENGKIVSSAMEPDREYHFGQAVRFVCNSGYKIEGDEEMHCSDDGFWSKEKPKCVEISCKSPDVINGSPISQKIIYKENERFQYKCNMGYEYSERGDAVCTESGWRPLPSCEEKSCDNPYIPNGDYSPLRIKHRTGDEITYQCRNGFYPATRGNTAKCTSTGWIPAPRCTLKPCDYPDIKHGGLYHENMRRPYFPVAVGKYYSYYCDEHFETPSGSYWDHIHCTQDGWSPAVPCLRKCYFPYLENGYNQNYGRKFVQGKSIDVACHPGYALPKAQTTVTCMENGWSPTPRCIRVKTCSKSSIDIENGFISESQYTYALKEKAKYQCKLGYVTADGETSGSITCGKDGWSAQPTCIKSCDIPVFMNARTKNDFTWFKLNDTLDYECHDGYESNTGSTTGSIVCGYNGWSDLPICYEREGASGCELPKIDVHLVPDRKKDQYKVGEVLKFSCKPGFTIVGPNSVQCYHFGLSPDLPICKEQVQSCGPPPELLNGNVKEKTKEEYGHSEVVEYYCNPRFLMKGPNKIQCVDGEWTTLPVCIVEESTCGDIPELEHGWAQLSSPPYYYGDSVEFNCSESFTMIGHRSITCIHGVWTQLPQCVAIDKLKKCKSSNLIILEEHLKNKKEFDHNSNIRYRCRGKEGWIHTVCINGRWDPEVNCSMAQIQLCPPPPQIPNSHNMTTTLNYRDGEKVSVLCQENYLIQEGEEITCKDGRWQSIPLCVEKIPCSQPPQIEHGTINSSRSSQESYAHGTKLSYTCEGGFRISEENETTCYMGKWSSPPQCEGLPCKSPPEISHGVVAHMSDSYQYGEEVTYKCFEGFGIDGPAIAKCLGEKWSHPPSCIKTDCLSLPSFENAIPMGEKKDVYKAGEQVTYTCATYYKMDGASNVTCINSRWTGRPTCRDTSCVNPPTVQNAYIVSRQMSKYPSGERVRYQCRSPYEMFGDEEVMCLNGNWTEPPQCKDSTGKCGPPPPIDNGDITSFPLSVYAPASSVEYQCQNLYQLEGNKRITCRNGQWSEPPKCLHPCVISREIMENYNIALRWTAKQKLYSRTGESVEFVCKRGYRLSSRSHTLRTTCWDGKLEYPTCAKRGGSGHHHHHH
B5: pCEP4-1NT8-14CT20 (other)
chain: EDCNELPPRRNTEILTGSWSDQTYPEGTQAIYKCRPGYRSLGNVIMVCRKGEWVALNPLRKCQKRPCGHPGDTPFGTFTLTGGNVFEYGVKAVYTCNEGYQLLGEINYRECDTDGWTNDIPICEVVKCLPVTAPENGKIVSSAMEPDREYHFGQAVRFVCNSGYKIEGDEEMHCSDDGFWSKEKPKCVEISCKSPDVINGSPISQKIIYKENERFQYKCNMGYEYSERGDAVCTESGWRPLPSCEEKSCDNPYIPNGDYSPLRIKHRTGDEITYQCRNGFYPATRGNTAKCTSTGWIPAPRCTLKPCDYPDIKHGGLYHENMRRPYFPVAVGKYYSYYCDEHFETPSGSYWDHIHCTQDGWSPAVPCLRKCYFPYLENGYNQNHGRKFVQGKSIDVACHPGYALPKAQTTVTCMENGWSPTPRCIRVKTCSKSSIDIENGFISESQYTYALKEKAKYQCKLGYVTADGETSGSITCGKDGWSAQPTCIKSGASGCPPPPQIPNSHNMTTTLNYRDGEKVSVLCQENYLIQEGEEITCKDGRWQSIPLCVEKIPCSQPPQIEHGTINSSRSSQESYAHGTKLSYTCEGGFRISEENETTCYMGKWSSPPQCEGLPCKSPPEISHGVVAHMSDSYQYGEEVTYKCFEGFGIDGPAIAKCLGEKWSHPPSCIKTDCLSLPSFENAIPMGEKKDVYKAGEQVTYTCATYYKMDGASNVTCINSRWTGRPTCRDTSCVNPPTVQNAYIVSRQMSKYPSGERVRYQCRSPYEMFGDEEVMCLNGNWTEPPQCKDSTGKCGPPPPIDNGDITSFPLSVYAPASSVEYQCQNLYQLEGNKRITCRNGQWSEPPKCLHPCVISREIMENYNIALRWTAKQKLYSRTGESVEFVCKRGYRLSSRSHTLRTTCWDGKLEYPTCAKRGGSGHHHHHH

target: C3 convertase complex (UniProt P01024 23-1663; P00751 260-764); assay: cell-based or functional assay
Wherever C3 convertase activity % of the control is given: test concentration or dose not given here.

Sequence of C3 convertase complex (P01024 23-1663, chain 1 of 2): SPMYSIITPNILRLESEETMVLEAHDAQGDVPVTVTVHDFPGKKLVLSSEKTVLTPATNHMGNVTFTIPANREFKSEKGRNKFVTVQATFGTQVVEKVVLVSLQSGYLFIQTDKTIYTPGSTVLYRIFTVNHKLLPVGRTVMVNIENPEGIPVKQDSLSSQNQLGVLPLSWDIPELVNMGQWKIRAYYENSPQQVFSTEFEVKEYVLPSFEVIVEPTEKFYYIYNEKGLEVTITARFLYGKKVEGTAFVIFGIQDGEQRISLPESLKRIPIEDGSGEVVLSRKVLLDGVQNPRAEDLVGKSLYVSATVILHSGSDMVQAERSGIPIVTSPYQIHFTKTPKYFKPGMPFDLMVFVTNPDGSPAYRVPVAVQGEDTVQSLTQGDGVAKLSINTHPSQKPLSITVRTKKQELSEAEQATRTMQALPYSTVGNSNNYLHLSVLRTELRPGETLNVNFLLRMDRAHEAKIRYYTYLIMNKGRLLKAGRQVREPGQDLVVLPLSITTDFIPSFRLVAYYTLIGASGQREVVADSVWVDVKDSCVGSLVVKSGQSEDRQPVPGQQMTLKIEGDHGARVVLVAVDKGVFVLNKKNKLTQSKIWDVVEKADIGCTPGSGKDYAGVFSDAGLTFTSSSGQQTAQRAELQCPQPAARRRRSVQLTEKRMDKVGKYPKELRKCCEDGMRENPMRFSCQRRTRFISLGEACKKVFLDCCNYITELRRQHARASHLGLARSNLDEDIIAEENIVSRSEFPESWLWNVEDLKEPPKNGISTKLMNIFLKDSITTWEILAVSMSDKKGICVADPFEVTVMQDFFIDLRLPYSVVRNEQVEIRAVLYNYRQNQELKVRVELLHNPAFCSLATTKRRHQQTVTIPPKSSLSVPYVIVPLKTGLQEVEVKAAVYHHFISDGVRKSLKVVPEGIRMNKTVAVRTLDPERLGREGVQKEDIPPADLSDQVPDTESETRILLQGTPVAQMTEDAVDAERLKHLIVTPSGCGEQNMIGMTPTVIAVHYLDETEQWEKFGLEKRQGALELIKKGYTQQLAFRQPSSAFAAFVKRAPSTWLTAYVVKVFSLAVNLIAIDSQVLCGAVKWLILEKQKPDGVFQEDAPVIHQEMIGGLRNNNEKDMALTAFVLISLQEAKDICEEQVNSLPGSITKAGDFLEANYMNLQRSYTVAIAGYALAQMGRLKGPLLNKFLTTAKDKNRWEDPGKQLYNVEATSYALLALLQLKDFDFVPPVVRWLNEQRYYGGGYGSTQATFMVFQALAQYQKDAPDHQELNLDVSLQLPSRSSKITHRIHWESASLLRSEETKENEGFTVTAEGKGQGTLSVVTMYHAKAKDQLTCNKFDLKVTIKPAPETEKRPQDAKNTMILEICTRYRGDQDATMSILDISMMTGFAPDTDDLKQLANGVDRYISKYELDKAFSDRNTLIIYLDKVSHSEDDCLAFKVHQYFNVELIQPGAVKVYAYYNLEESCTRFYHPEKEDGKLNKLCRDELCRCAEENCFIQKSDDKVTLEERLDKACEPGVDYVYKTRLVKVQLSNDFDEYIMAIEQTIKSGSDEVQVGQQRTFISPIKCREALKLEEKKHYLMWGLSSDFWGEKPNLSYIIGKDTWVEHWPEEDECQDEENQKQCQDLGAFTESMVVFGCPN
Sequence of C3 convertase complex (P00751 260-764, chain 2 of 2): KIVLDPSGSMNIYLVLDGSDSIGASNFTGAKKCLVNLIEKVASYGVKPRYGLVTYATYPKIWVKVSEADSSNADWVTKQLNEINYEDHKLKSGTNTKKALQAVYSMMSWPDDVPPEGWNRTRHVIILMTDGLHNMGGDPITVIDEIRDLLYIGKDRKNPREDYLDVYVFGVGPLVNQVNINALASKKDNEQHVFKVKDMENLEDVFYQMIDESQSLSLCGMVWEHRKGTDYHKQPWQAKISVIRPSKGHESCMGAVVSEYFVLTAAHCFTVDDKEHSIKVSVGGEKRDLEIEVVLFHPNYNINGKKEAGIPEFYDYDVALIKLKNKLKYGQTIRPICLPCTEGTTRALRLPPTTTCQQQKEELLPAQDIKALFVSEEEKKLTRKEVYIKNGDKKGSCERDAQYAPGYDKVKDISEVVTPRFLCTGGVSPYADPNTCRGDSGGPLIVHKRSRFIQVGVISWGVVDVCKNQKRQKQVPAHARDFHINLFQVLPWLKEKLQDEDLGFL

Row | Binder | C3 convertase activity % of the control | C3 convertase activity IC50
1 | B1 | 59 % of the control | 0.602 mg/L
2 | B2 | 64 % of the control | 0.57 mg/L
3 | B3 | 58 % of the control | 0.612 mg/L
4 | B4 | 64 % of the control | 0.552 mg/L
5 | B5 | 61 % of the control | 0.645 mg/L
